Reference: patent publication US20070160576A1, “IL-17A/F heterologous polypeptides and therapeutic uses thereof” (Genentech, Inc., priority 2001, published 2007)

T1: IL-17RH1 (PRO5801) (Homo sapiens, UniProt Q9NRM6)
T1 construct: the extracellular domains (ECDs) of either of the two receptors IL-17R (designated PRO1) and IL-17RH1 (PRO5801)
T1 sequence (Q9NRM6 18-292 limits assumed): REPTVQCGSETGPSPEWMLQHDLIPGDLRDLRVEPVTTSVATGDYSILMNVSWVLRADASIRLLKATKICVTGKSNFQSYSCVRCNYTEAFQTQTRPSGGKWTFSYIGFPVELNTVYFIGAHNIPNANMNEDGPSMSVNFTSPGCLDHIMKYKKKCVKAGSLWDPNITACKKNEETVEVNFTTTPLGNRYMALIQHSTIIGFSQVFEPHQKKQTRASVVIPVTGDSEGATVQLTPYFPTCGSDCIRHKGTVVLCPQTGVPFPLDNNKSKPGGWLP

T2: IL-17RH1 (Homo sapiens, UniProt Q9NRM6)
T2 construct: the extracellular domains (ECDs) of either of the two receptors IL-17R (designated PRO1) and IL-17RH1 (PRO5801)
T2 sequence (Q9NRM6 18-292 limits assumed): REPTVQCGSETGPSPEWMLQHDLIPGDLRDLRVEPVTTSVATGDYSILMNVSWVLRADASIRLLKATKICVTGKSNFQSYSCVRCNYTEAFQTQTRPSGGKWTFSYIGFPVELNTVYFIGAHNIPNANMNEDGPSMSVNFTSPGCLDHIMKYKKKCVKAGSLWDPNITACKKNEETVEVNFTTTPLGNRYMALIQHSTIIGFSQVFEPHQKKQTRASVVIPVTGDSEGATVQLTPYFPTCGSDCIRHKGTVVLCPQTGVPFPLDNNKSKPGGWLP


How the values were obtained:
TK-10 cells = experiment: IL-8 and IL-6 production in TK-10 cells (ELISA of conditioned media); format: cell-based, human; settings: TK-10 cells, 24 hours, IL-8 ELISA
Procedure: Fractions were tested by incubation with TK-10 cells for 24 hours (0.033 microliters fraction/ml of cell culture media). Conditioned media was then collected and IL-8 and IL-6 concentration measurements were performed on each fraction by ELISA. […] Gels, blots, amino acid sequence and activity assays were run on this fraction (FIG. 3). Alternatively, fraction 31 and the remaining volume of fraction 32, from the HiLoad S Sepharose run were pooled and dialyzed against Buffer A for eight hours using a 10 kD cutoff membrane and passed through a 0.2 micron filter. […] Fractions 26-43 were assayed and protein concentrations were determined by amino acid analysis. Pure IL-17A/F was identified in fractions 31-33 as a single protein with apparent molecular mass of 30-35 kD. The concentrations of fractions 31, 32 and 33 were 0.258, 0.359 and 0.291 mg/ml respectively.
IL-17A/F, IL-17 and IL-17F were incubated with TK-10 cells at the indicated concentrations for 24 hours.
TK-10 conditioned media was collected and analyzed by IL-8 ELISA and IL-6 ELISA.

IL-17R = biological target: T3, IL-17R (Homo sapiens, UniProt Q96F46); experiment: SPR (BIAcore) binding measurements; settings: IL-17R up to 1 ┘M
T3 construct: the extracellular domains (ECDs) of either of the two receptors IL-17R (designated PRO1) and IL-17RH1 (PRO5801)
Procedure: (§1) The kinetics and affinity of IL-17, IL-17E (PRO10272), or IL-17F (PRO20110) binding to IL-17R or IL-17RH1 (PRO5801) were determined by SPR measurements on a Pharmacia BIAcore 1000 instrument (Phamacia Biosensor, Piscataway N.J.). IL-17 ligand or receptor was immobilized onto a flow cell of a CM5 sensor chip via random coupling to amino groups, N-hydroxysuccinimide chemistry, by using a protocol developed by the manufacturer. An immobilization level of about 500 resonance units (RU) was obtained for IL-17R, IL-17RH1, and IL-17F, whereas IL-17 and IL-17E immobilization levels were 1200 and 1500 RU, respectively. A strong signal was obtained for IL-17R binding to immobilized IL-17. […] After blocking unreacted sites with ethanolamine, binding measurements were performed using a flow rate of 25 ┘L/min. Sensorgrams-were obtained for a series of six, two-fold serially diluted protein solutions. The highest concentration used was 1000 or 500 nM protein and the solutions were prepared in the running buffer, PBS containing 0.05% Tween-20. The sensor chip surface was regenerated between binding cycles by injection of a 25 ┘L aliquot of 0.1 M acetic acid, 0.2 M NaCl, pH 3 to elute non-covalent bound protein. Sensorgrams were evaluated according to a 1:1 binding model by non-linear regression analysis using software supplied by the manufacturer. In separate experiments to measure competition between IL-17 variants for binding receptors, a fixed concentration of receptor was incubated with a varied concentration of IL-17 protein followed by injection of this mixture onto a flow cell having immobilized IL-17 protein. The amount of bound receptor was determined from the resonance signal obtained after completion of the association phase.

IL-17RH1 (PRO5801) = biological target: T1, IL-17RH1 (PRO5801); experiment: SPR (BIAcore) binding measurements; settings: IL-17RH1 up to 0.5 ┘M
Procedure: as §1

IL-17RH1 = biological target: T2, IL-17RH1; experiment: SPR competition for receptor binding to immobilized IL-17E; settings: IL-17RH1 31 nM; IL-17F at 1.3 ┘M
Procedure: as §1, with “The sensor chip surface was regenerated between binding cycles by injection of a 25 ┘L aliquot of 0.1 M acetic acid, 0.2 M NaCl, pH 3 to elute non-covalent bound protein.” left out, “In separate experiments to measure competition between IL-17 variants for binding receptors, a fixed concentration of receptor was incubated with a varied concentration of IL-17 protein followed by injection of this mixture onto a flow cell having immobilized IL-17 protein.” left out, “phase. […]” for “phase.”

[1] = biological target: T4, human IL-17 receptor (IL-17R, PRO1) as tested in the receptor/ligand screen (human, UniProt Q96F46 33-320, limits assumed); experiment: receptor/ligand screen, FIG. 14
T4 construct: also called IL-7R (as misprinted)
Text: A PRO polypeptide of the present invention suspected of being a ligand for a receptor is expressed as a fusion protein containing the Fc domain of human IgG (an immunoadhesin). Receptor-ligand binding is detected by allowing interaction of the immunoadhesin polypeptide with cells (e.g. Cos cells) expressing candidate PRO polypeptide receptors and visualization of bound immunoadhesin with fluorescent reagents directed toward the Fc fusion domain and examination by microscope. Cells expressing candidate receptors are produced by transient transfection, in parallel, of defined subsets of a library of cDNA expression vectors encoding PRO polypeptides that may function as receptor molecules. Cells are then incubated for 1 hour in the presence of the PRO polypeptide immunoadhesin being tested for possible receptor binding. The cells are then washed and fixed with paraformaldehyde. The cells are then incubated with fluorescent conjugated antibody directed against the Fc portion of the PRO polypeptide immunoadhesin (e.g. FITC conjugated goat anti-human-Fc antibody). The cells are then washed again and examined by microscope. A positive interaction is judged by the presence of fluorescent labeling of cells transfected with cDNA encoding a particular PRO polypeptide receptor or pool of receptors and an absence of similar fluorescent labeling of similarly prepared cells that have been transfected with other cDNA or pools of cDNA. If a defined pool of cDNA expression vectors is judged to be positive for interaction with a PRO polypeptide immunoadhesin, the individual cDNA species that comprise the pool are tested individually (the pool is “broken down”) to determine the specific cDNA that encodes a receptor able to interact with the PRO polypeptide immunoadhesin.
In another embodiment of this assay, an epitope-tagged potential ligand PRO polypeptide (e.g., 8 histidine “His” tag) is allowed to interact with a panel of potential receptor PRO polypeptide molecules that have been expressed as fusions with the Fc domain of human IgG (immunoadhesins). Following a 1 hour co-incubation with the epitope tagged PRO polypeptide, the candidate receptors are each immunoprecipitated with protein A beads and the beads are washed. Potential ligand interaction is determined by Western blot analysis of the immunoprecipitated complexes with antibody directed towards the epitope tag.

Row | Molecule | IL-8 production (TK-10 cells) | binding of IL-17R to immobilized IL-17F (IL-17R) | binding of IL-17RH1 to immobilized IL-17F (IL-17RH1 (PRO5801)) | competition for binding of IL-17RH1 to immobilized IL-17E (IL-17RH1) | binding result [1]
1 | IL-17F: human IL-17F ligand, SEQ ID NO:4 (protein, listed as Homo sapiens) MTVKTLHGPAMVKYLLLSILGLAFLSEAAARKIPKVGHTFFQKPESCPPVPGGSMKLDIGIINENQRVSMSRNIESRSTSPWNYTVTWDPNRYPSEVVQAQCRNLGCINAQGKEDISMNSVPIQQETLVVRRKHQGCSVSFQLEKVLVTVGCTCVTPVIHHVQ | production of IL-8 | no binding | no binding | could not block binding | –
2 | PRO21175 (IL-17D ligand) (ligand, UniProt Q8TAD2 16-202, looked up) AGAPRAGRRPARPRGCADRPEELLEQLYGRLAAGVLSAFHHTLQLGPREQARNASCPAGGRPADRRFRPPTNLRSVSPWAYRISYDPARYPRYLPEAYCLCRGCLTGLFGEEDVRFRSAPVYMPTVVLRRTPACAGGRSVYTEAYVTIPVGCTCVPEPEKDADSINSSIDKQGAKLLLGPNDAPAGP | – | – | – | – | no binding
